The results in this text go back to US20140323392A1 (UNIVERSITY OF UTAH RESEARCH FOUNDATION, published 2014).

What all share (assay): cell-based or functional assay
For assay [1], the target named is T1, HIV-1 HXB2 envelope glycoprotein gp41 (N-trimer of the prehairpin intermediate) (HIV-1 strain HXB2, UniProt P04578 512-856).
In assay [2] the target is T1, HIV-1 HXB2 envelope glycoprotein gp41 …. This is another data set of the same source.
In assay [3] the target is T2, HIV-1 JRFL envelope glycoprotein gp41 (N-trimer of the prehairpin intermediate) (HIV-1 strain JRFL).
Assay [4] has as its target T3, HIV-1 HXB2 envelope glycoprotein gp41 with resistance mutation Q577R (HIV-1 strain HXB2, UniProt P04578 33-856).
Assay [5] concerns the target T1, HIV-1 HXB2 envelope glycoprotein gp41 …. This is another data set of the same source.
Assay [6] addresses T4, HIV-1 HXB2 envelope glycoprotein gp41 with resistance mutations E560K/V570I (HIV-1 strain HXB2, UniProt P04578 33-856).
Assay [7] concerns the target T2, HIV-1 JRFL envelope glycoprotein gp41 …. The source holds these as a separate data set.
For assay [8] the target is unchanged. The source holds these as a separate data set.
For assay [9], the target named is T3, HIV-1 HXB2 envelope glycoprotein gp41 …. The source holds these as a separate data set.
For assay [10], the target named is T1, HIV-1 HXB2 envelope glycoprotein gp41 …. This is another data set of the same source.
Assay [11] has as its target T4, HIV-1 HXB2 envelope glycoprotein gp41 …. This is another data set of the same source.
Assay [12] has as its target T1, HIV-1 HXB2 envelope glycoprotein gp41 …. The source holds these as a separate data set.

Like-named read-outs stand apart in the source and are kept apart here. Bridges are numbered along the chain shown (N, C = ends). Roman numbers before positions name the chains, in order. Where no end group is shown, it is not given here. [ ]: non-standard residue; d: D form.

B1: PEG4-ΔHP-PIE12-trimer (peptide)
peptide: [dC][dD][dY][dP][dE][dW][dQ][dW][dL][dC][dE][dL]GK
modifications: disulfide 1-10 (inferred); not fully specified (residue 14); also: homotrimer on trimethylolethane-triNHS ester scaffold
For the molecule B1, the “IC50, HXB2 pseudovirion entry” value in [1] worked out at 300 nM.

Ac-[dK]G[dA][dC][dD][dY][dP][dE][dW][dR][dW][dL][dC][dA][dA][dA]-NH2 (disulfide 4-13 (inferred); also: dimer, Lys crosslinked by PEG) [PEG-(PIE2-AAA)2]: in assay [2], the “IC50, pseudovirion entry” value worked out at 21 nM and the “fold improvement of IC50 over the corresponding monomer” value was around 70 fold.

B2: PEG4-PIE12-trimer (peptide)
peptide: Ac-[dH][dP][dC][dD][dY][dP][dE][dW][dQ][dW][dL][dC][dE][dL]GK-NH2
modifications: disulfide 3-12 (inferred); not fully specified (residue 16); also: homotrimer on trimethylolethane-triNHS ester scaffold
Consider B2, for which the “IC50, JRFL pseudovirion entry” value in assay [3] stood at 2.1 nM. Also, in assay [1], the “IC50, HXB2 pseudovirion entry” value came out at 0.72 nM. Further, in assay [4], the “IC50, antiviral potency, Q577R (HXB2 background)” value was above 3 µM. In addition, in assay [5], the “IC50, antiviral potency, WT HXB2” value is 0.72 nM. The “IC50, antiviral potency, E560K/V570I (HXB2 background)” value in assay [6] stood at 0.89 nM.

Take Ac-[dH][dP][dC][dD][dY][dP][dE][dW][dQ][dW][dL][dC][dE][dL]G[dK]-NH2 (disulfide 3-12 (inferred)) [PIE12]: the “IC50, JRFL pseudovirion entry” value in [7] was 580 nM; in assay [8], 578 nM.

Take [dC][dD][dY][dP][dE][dW][dQ][dW][dL][dC][dE][dL]G[dK] (disulfide 1-10 (inferred)) [ΔHP-PIE12]: the “IC50, HXB2 pseudovirion entry” value in assay [1] came to 3100 nM. Moreover, the “fold loss of potency against PIE12” value in [2] was 84 fold.

B3: PEG5-ΔHP-PIE12-trimer (peptide)
peptide: [dC][dD][dY][dP][dE][dW][dQ][dW][dL][dC][dE][dL]GK
modifications: disulfide 1-10 (inferred); not fully specified (residue 14); also: homotrimer on trimethylolethane-triNHS ester scaffold
Turning to B3, in assay [1], the “IC50, HXB2 pseudovirion entry” value stood at 380 nM.

B4: C5C-PIE12-trimer (peptide)
peptide 1: Ac-[dH][dP][dC][dD][dY][dP][dE][dW][dQ][dW][dL][dC][dE][dL]G[dK]-NH2
peptide 2: Ac-[dH][dP][dC][dD][dY][dP][dE][dW][dQ][dW][dL][dC][dE][dL]G[dK][dK]-NH2
modifications: disulfide I:3-I:12, II:3-II:12 (inferred); also: trimer: C-terminal Lys linked by PEG5 spacers
Regarding B4, the “IC50, JRFL pseudovirion entry” value in assay [7] and in [8] was 2.8 nM in each case. In addition, the “IC50, Q577R HXB2 pseudovirion entry” value in assay [9] came to 2960 nM. In [10], the “IC50, HXB2 pseudovirion entry” value is 0.33 nM. In addition, the “IC50, E560K/V570I HXB2 pseudovirion entry” value in [11] was determined as 0.84 nM.

In the case of Ac-[dH][dP][dC][dD][dY][dP][dE][dW][dQ][dW][dL][dC][dE][dL]GK-NH2 (disulfide 3-12 (inferred); not fully specified (residue 16)) [Chol-PEG12-PIE12 (monomer)], the “IC50, HXB2 pseudovirion entry” value in assay [1] was 12 nM; in assay [10], 11 nM. For the same molecule, the “IC50, JRFL pseudovirion entry” value in assay [7] turned out to be 200 nM.

B5: Chol-PEG36-PIE12-trimer (peptide)
peptide: Ac-[dH][dP][dC][dD][dY][dP][dE][dW][dQ][dW][dL][dC][dE][dL]GK-NH2
modifications: disulfide 3-12 (inferred); not fully specified (residue 16); also: trimer on scaffold via PEG4, fourth arm PEG36 (PEG24 + PEG12 through D-Cys) carrying thiocholesterol
As to B5, the “IC50, Q577R HXB2 pseudovirion entry” value in [9] came out at 2.7 nM. Also, the “IC50, HXB2 pseudovirion entry” value in assay [10] came to 0.0054 nM. Also, in [11], the “IC50, E560K/V570I HXB2 pseudovirion entry” value came out at 0.0045 nM.

In the case of Ac-[dH][dP][dC][dD][dY][dP][dE][dW][dQ][dW][dL][dC][dE][dL]GK-NH2 (disulfide 3-12 (inferred); not fully specified (residue 16)) [Chol-PEG24-PIE12 (monomer)], the “IC50, HXB2 pseudovirion entry” value in [1] is 0.64 nM; in assay [10], 0.4 nM.

As to Ac-[dH][dP][dC][dD][dY][dP][dE][dW][dQ][dW][dL][dC][dE][dL]GK-NH2 (disulfide 3-12 (inferred); not fully specified (residue 16)) [Chol-PEG2-PIE12 (monomer)], the “IC50, HXB2 pseudovirion entry” value was determined as 69 nM in [1] and 58 nM in assay [10].

B6: PIE7-GK short claw (peptide)
peptide: Ac-G[dA][dC][dD][dY][dP][dE][dW][dQ][dW][dL][dC][dA][dA]G[dK]-NH2
modifications: disulfide 3-12 (inferred); also: linked directly to trifunctional crosslinker TSAT
With B6, in [8], the “IC50, JRFL pseudovirion entry” value turned out to be 86.6 nM. Also, the “IC50, HXB2 pseudovirion entry” value in [12] was found to be 0.23 nM.

B7: N9N(PIE7)2 (peptide)
peptide: Ac-[dK]G[dA][dC][dD][dY][dP][dE][dW][dQ][dW][dL][dC][dA][dA]-NH2
modifications: disulfide 4-13 (inferred); also: dimer, N- to N-terminal Lys crosslinked by Bis-dPEG9 NHS ester
Turning to B7, the “IC50, JRFL pseudovirion entry” value in [8] worked out at 2300 nM. For the same molecule, in [12], the “IC50, HXB2 pseudovirion entry” value is 1.9 nM. Besides, the “fold improvement of IC50 over the corresponding monomer” value in assay [2] was around 325 fold.
